Experiments:
[1] = target: T1, PD-1 on PD-1-expressing 300.19 cells (UniProt Q15116 25-288, limits assumed); assay: rank among the 16 humanized clones in competition binding against labeled murine mAb BAP049, 2nd exp. (FIGURE 6B)
T1 construct: whole, on cells

[2] = target: T1, PD-1 on PD-1-expressing 300.19 cells; assay: rank among the 16 humanized clones in competition binding against labeled murine mAb BAP049, 1st exp. (FIGURE 6A)
[3] = target: T2, Programmed Death 1 (PD-1) (UniProt Q15116 25-167, limits assumed); assay: rank among the 16 humanized clones by FACS data (order agrees with the 200 ng/ml bars of FIGURE 4, 1 = highest)
[4] = target: T2, Programmed Death 1 (PD-1); assay: FACS ligand blocking: mAb titrated, signal of ligand-Ig bound to PD-1; legend paragraph 46 names PD-L1-Ig and PD-L2-Ig as blocked ligands for FIG. 8A; cells not named

T2 sequence (Q15116 25-167 limits assumed): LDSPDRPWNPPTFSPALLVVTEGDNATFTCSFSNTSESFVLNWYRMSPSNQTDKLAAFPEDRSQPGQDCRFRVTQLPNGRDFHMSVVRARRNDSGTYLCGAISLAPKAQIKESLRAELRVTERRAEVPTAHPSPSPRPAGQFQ
T1 sequence (Q15116 25-288 limits assumed): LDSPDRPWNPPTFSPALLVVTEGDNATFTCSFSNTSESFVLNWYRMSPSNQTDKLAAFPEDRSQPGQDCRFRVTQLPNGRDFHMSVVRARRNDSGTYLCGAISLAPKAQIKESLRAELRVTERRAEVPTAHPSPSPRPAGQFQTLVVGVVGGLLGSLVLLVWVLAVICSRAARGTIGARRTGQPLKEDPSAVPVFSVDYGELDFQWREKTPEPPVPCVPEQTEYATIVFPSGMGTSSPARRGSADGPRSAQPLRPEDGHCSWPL

| Binder | Competition Binding 2nd exp. [1] | Competition Binding 1st exp. [2] | Ranking FACS data [3] | IC50 (read off the curve) [4] [µg/mL] |
| --- | --- | --- | --- | --- |
| BAP049-hum12 (antibody, human IgG4 S228P, kappa, V domains shown, also called Clone No. 12) VH: EVQLVQSGAEVKKPGESLRISCKGSGYTFTTYWMHWVRQATGQGLEWMGNIYPGTGGSNFDEKFKNRVTITADKSTSTAYMELSSLRSEDTAVYYCTRWTTGTGAYWGQGTTVTVSS VL: DIQMTQSPSSLSASVGDRVTITCKSSQSLLDSGNQKNFLTWYLQKPGQSPQLLIYWASTRESGVPSRFSGSGSGTDFTFTISSLEAEDAATYYCQNDYSYPYTFGQGTKVEIKR | 16 | 8 | 3 | – |
| BAP049-hum02 (antibody, human IgG4 S228P, kappa, V domains shown, also called Clone No. 2) VH: EVQLVQSGAEVKKPGESLRISCKGSGYTFTTYWMHWVRQATGQGLEWMGNIYPGTGGSNFDEKFKNRVTITADKSTSTAYMELSSLRSEDTAVYYCTRWTTGTGAYWGQGTTVTVSS VL: DIQMTQSPSSLSASVGDRVTITCKSSQSLLDSGNQKNFLTWYQQKPGQAPRLLIYWASTRESGIPPRFSGSGYGTDFTLTINNIESEDAAYYFCQNDYSYPYTFGQGTKVEIKR | 2 | 3 | 6 | – |
| Chi mAb (Tyr) (antibody, human IgG4 S228P, kappa, V domains shown, also called BAP049-chi-Y; Chi (Tyr)) VH: QVQLQQSGSELVRPGASVKLSCKASGYTFTTYWMHWVRQRPGQGLEWIGNIYPGTGGSNFDEKFKNRTSLTVDTSSTTAYMHLASLTSEDSAVYYCTRWTTGTGAYWGQGTTVTVSS VL: DIVMTQSPSSLTVTAGEKVTMSCKSSQSLLDSGNQKNFLTWYQQKPGQPPKLLIFWASTRESGVPDRFTGSGSVTDFTLTISSVQAEDLAVYYCQNDYSYPYTFGQGTKVEIKR | – | – | – | ~0.8 |
| murine anti-PD-1 mAb BAP049 (antibody, V domains shown, the murine constant regions are not described; also called Mu mAb; murine mAb BAP049) VH: QVQLQQSGSELVRPGASVKLSCKASGYTFTTYWMHWVRQRPGQGLEWIGNIYPGTGGSNFDEKFKNRTSLTVDTSSTTAYMHLASLTSEDSAVYYCTRWTTGTGAYWGQGTLVTVSA VL: DIVMTQSPSSLTVTAGEKVTMSCKSSQSLLDSGNQKNFLTWYQQKPGQPPKLLIFWASTRESGVPDRFTGSGSVTDFTLTISSVQAEDLAVYYCQNDYSYPCTFGGGTKLEIK | – | – | – | ~0.6 |
| BAP049-hum13 (antibody, human IgG4 S228P, kappa, also called Clone No. 13) heavy chain: not shown light chain: DVVMTQSPLSLPVTLGQPASISCKSSQSLLDSGNQKNFLTWYQQKPGKAPKLLIYWASTRESGVPSRFSGSGSGTDFTFTISSLEAEDAATYYCQNDYSYPYTFGQGTKVEIKRTVAAPSVFIFPPSDEQLKSGTASVVCLLNNFYPREAKVQWKVDNALQSGNSQESVTEQDSKDSTYSLSSTLTLSKADYEKHKVYACEVTHQGLSSPVTKSFNRGEC | 1 | 1 | 6 | – |
| BAP049-hum10 (antibody, human IgG4 S228P, kappa, Humanized mAb) heavy: not shown light: EIVLTQSPATLSLSPGERATLSCKSSQSLLDSGNQKNFLTWYQQKPGQAPRLLIYWASTRESGVPSRFSGSGSGTDFTFTISSLEAEDAATYYCQNDYSYPYTFGQGTKVEIKRTVAAPSVFIFPPSDEQLKSGTASVVCLLNNFYPREAKVQWKVDNALQSGNSQESVTEQDSKDSTYSLSSTLTLSKADYEKHKVYACEVTHQGLSSPVTKSFNRGEC | > 4 | 6 | 7 | ~1 |
| BAP049-hum08 (antibody, human IgG4 S228P, kappa, Humanized mAb) heavy: not shown light: EIVLTQSPDFQSVTPKEKVTITCKSSQSLLDSGNQKNFLTWYQQKPGQAPRLLIYWASTRESGVPSRFSGSGSGTDFTFTISSLEAEDAATYYCQNDYSYPYTFGQGTKVEIKRTVAAPSVFIFPPSDEQLKSGTASVVCLLNNFYPREAKVQWKVDNALQSGNSQESVTEQDSKDSTYSLSSTLTLSKADYEKHKVYACEVTHQGLSSPVTKSFNRGEC | 4 | 7 | 7 | – |
| BAP049-hum11 (antibody, human IgG4 S228P, kappa, Humanized mAb) heavy: not shown light: EIVLTQSPATLSLSPGERATLSCKSSQSLLDSGNQKNFLTWYQQKPGQAPRLLIYWASTRESGVPSRFSGSGSGTDFTFTISSLEAEDAATYYCQNDYSYPYTFGQGTKVEIKRTVAAPSVFIFPPSDEQLKSGTASVVCLLNNFYPREAKVQWKVDNALQSGNSQESVTEQDSKDSTYSLSSTLTLSKADYEKHKVYACEVTHQGLSSPVTKSFNRGEC | > 4 | 4 | 6 | – |
| BAP049-hum16 (antibody, human IgG4 S228P, kappa, V domains shown, also called Clone No. 16) VH: EVQLVQSGAEVKKPGESLRISCKGSGYTFTTYWMHWVRQAPGQGLEWMGNIYPGTGGSNFDEKFKNRFTISRDNSKNTLYLQMNSLRAEDTAVYYCTRWTTGTGAYWGQGTTVTVSS VL: EIVLTQSPDFQSVTPKEKVTITCKSSQSLLDSGNQKNFLTWYQQKPGQAPRLLIYWASTRESGVPSRFSGSGSGTDFTFTISSLEAEDAATYYCQNDYSYPYTFGQGTKVEIKR | 15 | 16 | 15 | – |
| BAP049-hum07 (antibody, human IgG4 S228P, kappa, also called Clone No. 7) heavy chain: not shown light chain: EIVLTQSPATLSLSPGERATLSCKSSQSLLDSGNQKNFLTWYQQKPGKAPKLLIYWASTRESGVPSRFSGSGSGTDFTFTISSLEAEDAATYYCQNDYSYPYTFGQGTKVEIKRTVAAPSVFIFPPSDEQLKSGTASVVCLLNNFYPREAKVQWKVDNALQSGNSQESVTEQDSKDSTYSLSSTLTLSKADYEKHKVYACEVTHQGLSSPVTKSFNRGEC | > 4 | 7 | 4 | – |
| BAP049-hum01 (antibody, human IgG4 S228P, kappa, V domains shown, Humanized mAb) VH: EVQLVQSGAEVKKPGESLRISCKGSGYTFTTYWMHWVRQATGQGLEWMGNIYPGTGGSNFDEKFKNRVTITADKSTSTAYMELSSLRSEDTAVYYCTRWTTGTGAYWGQGTTVTVSS VL: EIVLTQSPATLSLSPGERATLSCKSSQSLLDSGNQKNFLTWYQQKPGQAPRLLIYWASTRESGVPSRFSGSGSGTEFTLTISSLQPDDFATYYCQNDYSYPYTFGQGTKVEIKR | 2 | 7 | 2 | ~1 |
| BAP049-hum06 (antibody, human IgG4 S228P, kappa, also called Clone No. 6) heavy chain: not shown light chain: DIVMTQTPLSLPVTPGEPASISCKSSQSLLDSGNQKNFLTWYQQKPGQAPRLLIYWASTRESGVPSRFSGSGSGTDFTFTISSLEAEDAATYYCQNDYSYPYTFGQGTKVEIKRTVAAPSVFIFPPSDEQLKSGTASVVCLLNNFYPREAKVQWKVDNALQSGNSQESVTEQDSKDSTYSLSSTLTLSKADYEKHKVYACEVTHQGLSSPVTKSFNRGEC | 3 | 7 | 1 | – |
| BAP049-hum05 (antibody, human IgG4 S228P, kappa, V domains shown, Humanized mAb) VH: EVQLVQSGAEVKKPGESLRISCKGSGYTFTTYWMHWVRQATGQGLEWMGNIYPGTGGSNFDEKFKNRVTITADKSTSTAYMELSSLRSEDTAVYYCTRWTTGTGAYWGQGTTVTVSS VL: EIVLTQSPATLSLSPGERATLSCKSSQSLLDSGNQKNFLTWYQQKPGKAPKLLIYWASTRESGVPSRFSGSGSGTDFTFTISSLQPEDIATYYCQNDYSYPYTFGQGTKVEIKR | > 4 | 5 | 5 | ~1 |
| BAP049-hum14 (antibody, human IgG4 S228P, kappa, also called Clone No. 14) heavy chain: not shown light chain: EIVLTQSPATLSLSPGERATLSCKSSQSLLDSGNQKNFLTWYQQKPGQAPRLLIYWASTRESGVPSRFSGSGSGTDFTFTISSLEAEDAATYYCQNDYSYPYTFGQGTKVEIKRTVAAPSVFIFPPSDEQLKSGTASVVCLLNNFYPREAKVQWKVDNALQSGNSQESVTEQDSKDSTYSLSSTLTLSKADYEKHKVYACEVTHQGLSSPVTKSFNRGEC | 15 | 7 | 16 | – |
| BAP049-hum09 (antibody, human IgG4 S228P, kappa, Humanized mAb) heavy: not shown light: EIVLTQSPDFQSVTPKEKVTITCKSSQSLLDSGNQKNFLTWYQQKPGQAPRLLIYWASTRESGVPSRFSGSGSGTDFTFTISSLEAEDAATYYCQNDYSYPYTFGQGTKVEIKRTVAAPSVFIFPPSDEQLKSGTASVVCLLNNFYPREAKVQWKVDNALQSGNSQESVTEQDSKDSTYSLSSTLTLSKADYEKHKVYACEVTHQGLSSPVTKSFNRGEC | 4 | 2 | 7 | – |
| BAP049-hum04 (antibody, human IgG4 S228P, kappa, V domains shown, also called Clone No. 4) VH: EVQLVQSGAEVKKPGESLRISCKGSGYTFTTYWMHWIRQSPSRGLEWLGNIYPGTGGSNFDEKFKNRFTISRDNSKNTLYLQMNSLRAEDTAVYYCTRWTTGTGAYWGQGTTVTVSS VL: EIVLTQSPATLSLSPGERATLSCKSSQSLLDSGNQKNFLTWYQQKPGKAPKLLIYWASTRESGVPSRFSGSGSGTDFTFTISSLQPEDIATYYCQNDYSYPYTFGQGTKVEIKR | 15 | 15 | 14 | – |
| BAP049-hum15 (antibody, human IgG4 S228P, kappa, also called Clone No. 15) heavy chain: not shown light chain: EIVLTQSPDFQSVTPKEKVTITCKSSQSLLDSGNQKNFLTWYQQKPGQAPRLLIYWASTRESGVPSRFSGSGSGTDFTFTISSLEAEDAATYYCQNDYSYPYTFGQGTKVEIKRTVAAPSVFIFPPSDEQLKSGTASVVCLLNNFYPREAKVQWKVDNALQSGNSQESVTEQDSKDSTYSLSSTLTLSKADYEKHKVYACEVTHQGLSSPVTKSFNRGEC | 15 | 7 | 6 | – |
| BAP049-hum03 (antibody, human IgG4 S228P, kappa, V domains shown, also called Clone No. 3) VH: EVQLVQSGAEVKKPGESLRISCKGSGYTFTTYWMHWIRQSPSRGLEWLGNIYPGTGGSNFDEKFKNRFTISRDNSKNTLYLQMNSLRAEDTAVYYCTRWTTGTGAYWGQGTTVTVSS VL: DIQMTQSPSSLSASVGDRVTITCKSSQSLLDSGNQKNFLTWYQQKPGQAPRLLIYWASTRESGIPPRFSGSGYGTDFTLTINNIESEDAAYYFCQNDYSYPYTFGQGTKVEIKR | 14 | 8 | 7 | – |
